Source: PMC8573201
Residue numbers refer to the chain shown, from its start.

Experiments:
[1] = target: T1, human GIPR double mutant R190Q-E288G (human) (UniProt P48546)
T1 sequence: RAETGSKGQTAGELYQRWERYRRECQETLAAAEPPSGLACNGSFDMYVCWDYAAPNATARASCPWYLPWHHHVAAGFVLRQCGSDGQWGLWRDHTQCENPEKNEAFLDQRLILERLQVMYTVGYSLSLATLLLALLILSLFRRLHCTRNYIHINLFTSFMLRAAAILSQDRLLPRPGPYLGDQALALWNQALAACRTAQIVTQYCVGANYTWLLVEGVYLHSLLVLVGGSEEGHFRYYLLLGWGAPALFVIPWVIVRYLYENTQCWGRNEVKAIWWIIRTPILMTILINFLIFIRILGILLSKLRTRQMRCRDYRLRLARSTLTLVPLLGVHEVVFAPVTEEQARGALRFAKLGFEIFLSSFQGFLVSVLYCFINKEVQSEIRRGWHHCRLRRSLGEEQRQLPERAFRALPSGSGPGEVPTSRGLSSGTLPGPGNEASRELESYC

[2] = target: T2, wild-type human GIP receptor (GIPR) (human) (UniProt P48546)
T2 sequence: T1 sequence with Q169R, G267E

[3] = target: T3, human GIPR variant E288G (human) (UniProt P48546)
T3 sequence: T1 sequence with Q169R

[4] = target: T4, human GIPR variant R190Q (human) (UniProt P48546)
T4 sequence: T1 sequence with G267E

[5] = target: T1, human GIPR double mutant R190Q-E288G (human); remark: listed apart in the source
[6] = target: T2, wild-type human GIP receptor (GIPR) (human); remark: listed apart in the source
[7] = target: T3, human GIPR variant E288G (human); remark: listed apart in the source
[8] = target: T4, human GIPR variant R190Q (human); remark: listed apart in the source
[9] = scale: negative logarithm of molar concentration

Chain of Rluc8-Arrestin-3-Sp1 (P32121 whole entry): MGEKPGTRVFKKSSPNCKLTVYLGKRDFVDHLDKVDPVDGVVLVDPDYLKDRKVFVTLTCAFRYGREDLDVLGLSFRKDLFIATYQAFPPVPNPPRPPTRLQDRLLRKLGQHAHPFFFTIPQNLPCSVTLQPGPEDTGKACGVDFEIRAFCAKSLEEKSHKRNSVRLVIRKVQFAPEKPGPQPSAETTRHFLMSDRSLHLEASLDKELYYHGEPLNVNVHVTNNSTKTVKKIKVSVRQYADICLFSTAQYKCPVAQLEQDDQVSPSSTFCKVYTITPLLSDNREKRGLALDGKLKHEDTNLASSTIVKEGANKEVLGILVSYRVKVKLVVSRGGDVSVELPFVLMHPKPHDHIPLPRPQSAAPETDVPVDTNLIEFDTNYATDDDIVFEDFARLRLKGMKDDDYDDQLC

β-arrestin 2 recruitment in HEK293 cells (BRET, GRK2 co-expressed), EC50 of GIP(1-42) [1]: 11 nM
β-arrestin 2 recruitment in HEK293 cells (BRET, GRK2 co-expressed), EC50 of GIP(1-42) [2]: 0.88 nM
β-arrestin 2 recruitment in HEK293 cells (BRET, GRK2 co-expressed), EC50 of GIP(1-42) [3]: 0.23 nM
β-arrestin 2 recruitment in HEK293 cells (BRET, GRK2 co-expressed), EC50 of GIP(1-42) [4]: 0.76 nM
β-arrestin 2 recruitment in HEK293 cells (BRET between Rluc8-Arrestin-3-Sp1 and mem-linker-citrine-SH3, GRK2 co-expressed) on stimulation with GIP(1-42), Emax [5]: 12 % of WT
β-arrestin 2 recruitment in HEK293 cells (BRET, GRK2 co-expressed), pEC50 of GIP(1-42) [5, 9]: 8
β-arrestin 2 recruitment in HEK293 cells (BRET between Rluc8-Arrestin-3-Sp1 and mem-linker-citrine-SH3, GRK2 co-expressed) on stimulation with GIP(1-42), Emax [6]: 98 % of WT
β-arrestin 2 recruitment in HEK293 cells (BRET, GRK2 co-expressed), pEC50 of GIP(1-42) [6, 9]: 9.1
β-arrestin 2 recruitment in HEK293 cells (BRET between Rluc8-Arrestin-3-Sp1 and mem-linker-citrine-SH3, GRK2 co-expressed) on stimulation with GIP(1-42), Emax [7]: 8.6 % of WT
β-arrestin 2 recruitment in HEK293 cells (BRET, GRK2 co-expressed), pEC50 of GIP(1-42) [7, 9]: 9.6
β-arrestin 2 recruitment in HEK293 cells (BRET between Rluc8-Arrestin-3-Sp1 and mem-linker-citrine-SH3, GRK2 co-expressed) on stimulation with GIP(1-42), Emax [8]: 9 % of WT
β-arrestin 2 recruitment in HEK293 cells (BRET, GRK2 co-expressed), pEC50 of GIP(1-42) [8, 9]: 9.1
Substance: Rluc8-Arrestin-3-Sp1 (from UniProt P32121 1-409) (natural protein)
